These results are taken from PMC3430870 (Nature structural & molecular biology, 2011).

Common to all, as to assay: SPR
(In general: Surface plasmon resonance follows binding to a sensor surface in real time, without labels.)

Assay [1] concerns the target T1, mouse Wnt3a (mouse, UniProt P27467 19-352).
For assay [2], the target named is T1, mouse Wnt3a. The source holds these as a separate data set.
Assay [3] addresses T1, mouse Wnt3a. This is another data set of the same source.
The target in assay [4] is T1, mouse Wnt3a. This is another data set of the same source.
Assay [5] deals with T1, mouse Wnt3a. This is another data set of the same source.

Numbering of substitutions follows the chain as printed. Read-outs that look alike come from different tables or passages of the source.

T1 sequence (P27467 19-352): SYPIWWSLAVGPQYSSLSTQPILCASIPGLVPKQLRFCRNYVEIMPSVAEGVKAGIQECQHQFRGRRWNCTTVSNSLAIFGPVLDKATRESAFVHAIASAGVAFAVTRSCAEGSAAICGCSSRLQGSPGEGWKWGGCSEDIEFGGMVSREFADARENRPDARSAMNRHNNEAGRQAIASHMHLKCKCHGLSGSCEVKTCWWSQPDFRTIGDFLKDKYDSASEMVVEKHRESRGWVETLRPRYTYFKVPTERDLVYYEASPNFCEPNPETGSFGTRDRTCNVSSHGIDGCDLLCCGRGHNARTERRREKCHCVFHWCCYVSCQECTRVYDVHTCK

B1: WIF-1_(WD-EGF-I) (human WIF-1 residues 35-210) (domain or fragment, UniProt Q9Y5W5 35-210, looked up)
chain: SLYLWIDAHQARVLIGFEEDILIVSEGKMAPFTHDFRKAQQRMPAIPVNIHSMNFTWQAAGQAEYFYEFLSLRSLDKGIMADPTVNVPLLGTVPHKASVVQVGFPCLGKQDGVAAFEVDVIVMNSEGNTILKTPQNAIFFKTCQQAECPGGCRNGGFCNERRICECPDGFHGPHCE
B1: the Kd in assay [1] worked out at 16.9 µM; in assay [2], 15.9 µM; in assay [3] it was 9.86 µM; in assay [4] it was 5.6 µM; in assay [5], 16.8 µM.

B2: WIF-1_(WD-EGF-I) Met77Trp (domain or fragment, human, UniProt Q9Y5W5 35-210, looked up)
chain: B1 chain with M43W
B2 registered a Kd in assay [4] of 2.86 µM.

B3: WIF-1WD (WIF domain of human Wnt inhibitory factor 1, residues 35-178) (domain or fragment, UniProt Q9Y5W5 35-178, looked up)
chain: SLYLWIDAHQARVLIGFEEDILIVSEGKMAPFTHDFRKAQQRMPAIPVNIHSMNFTWQAAGQAEYFYEFLSLRSLDKGIMADPTVNVPLLGTVPHKASVVQVGFPCLGKQDGVAAFEVDVIVMNSEGNTILKTPQNAIFFKTCQ
Consider B3, for which the Kd in assay [4] is 3.4 µM.

B4: WIF-1_(WD-EGFs I-III) (human WIF-1 residues 35-274) (domain or fragment, UniProt Q9Y5W5 35-274, looked up)
chain: SLYLWIDAHQARVLIGFEEDILIVSEGKMAPFTHDFRKAQQRMPAIPVNIHSMNFTWQAAGQAEYFYEFLSLRSLDKGIMADPTVNVPLLGTVPHKASVVQVGFPCLGKQDGVAAFEVDVIVMNSEGNTILKTPQNAIFFKTCQQAECPGGCRNGGFCNERRICECPDGFHGPHCEKALCTPRCMNGGLCVTPGFCICPPGFYGVNCDKANCSTTCFNGGTCFYPGKCICPPGLEGEQCE
The molecule B4 came in with a dissociation constant (Kd) in assay [4] of 3.21 µM.

B5: WIF-1ΔC (human WIF-1 residues 35-346) (domain or fragment, UniProt Q9Y5W5 35-346, looked up)
chain: SLYLWIDAHQARVLIGFEEDILIVSEGKMAPFTHDFRKAQQRMPAIPVNIHSMNFTWQAAGQAEYFYEFLSLRSLDKGIMADPTVNVPLLGTVPHKASVVQVGFPCLGKQDGVAAFEVDVIVMNSEGNTILKTPQNAIFFKTCQQAECPGGCRNGGFCNERRICECPDGFHGPHCEKALCTPRCMNGGLCVTPGFCICPPGFYGVNCDKANCSTTCFNGGTCFYPGKCICPPGLEGEQCEISKCPQPCRNGGKCIGKSKCKCSKGYQGDLCSKPVCEPGCGAHGTCHEPNKCQCQEGWHGRHCNKRYEASLI
In turn, B5 came in with a Kd in assay [4] of 0.0216 µM.

B6: WIF-1ΔC Met77Trp (domain or fragment, human, UniProt Q9Y5W5 35-346, looked up)
chain: B5 chain with M43W
For B6, in assay [4], the affinity, expressed as Kd, was 0.217 µM.

B7: WIF-1_(EGFs I-V) (human WIF-1 residues 178-346) (domain or fragment, UniProt Q9Y5W5 178-346, looked up)
chain: QQAECPGGCRNGGFCNERRICECPDGFHGPHCEKALCTPRCMNGGLCVTPGFCICPPGFYGVNCDKANCSTTCFNGGTCFYPGKCICPPGLEGEQCEISKCPQPCRNGGKCIGKSKCKCSKGYQGDLCSKPVCEPGCGAHGTCHEPNKCQCQEGWHGRHCNKRYEASLI
B7 registered a Kd in assay [4] of 0.9 µM.

The term Kd denotes the free concentration of one partner at which half of the binding sites on the other are occupied at equilibrium, for simple one-to-one binding.
